Several values for one entry are separate records, joined by “and”; a condition that tells them apart may be missing. Identical values can stand only once.
How the values were obtained:
[1] = target: Insulin-degrading enzyme wild type (rat); assay: SEC with static light scattering (SLS); 200 μg injected into a Superdex G-200 column, working buffer, 0.5 ml/min; 90° light scattering with UV or refractive index; calibrated with BSA
[2] = target: Proteolytically inactive recombinant insulin-degrading enzyme with Glu111 replaced by Gln (rat); assay: as above

| stoichiometry N [1] | stoichiometry N [2] | Substance |
| --- | --- | --- |
| 4 and 2 |  | Insulin-degrading enzyme wild type |
|  | 2 and 4 | Proteolytically inactive recombinant insulin-degrading enzyme with Glu111 replaced by Gln |

— publication PMC3623905
